Numbered stars: 1 amine (or outer) side, 2 acyl side, 3 side chain; on linkers, the order of the positions; unused ones are H or OH. Bridge positions count the residues as written; N and C are the ends. Side chains are listed from the residue outwards. Ends that are not written are not given here. * marks the point of attachment. C20 diacid = O=C(O)CCCCCCCCCCCCCCCCCCC(=O)*; γGlu = O=C(O)[C@H](CCC(=O)[*:2])N[*:1]; AEEA = NCCOCCOCC(=O)O
B1: N^ε1-[2-[2-[2-[[(4S)-4-carboxy-4-(19-carboxynonadecanoylamino)butanoyl]amino]ethoxy]ethoxy]acetyl]-[Arg17,Pro21,Pro27,His34]-h-amylin (peptide)
peptide: K([AEEA-γGlu-C20 diacid])CNTATCATQRLANFLRHSSPNFGAIPSSTNVGHNTY-NH2
modifications: disulfide 2-7; N-terminus assumed
SMILES: CC[C@H](C)[C@H](NC(=O)[C@H](C)NC(=O)CNC(=O)[C@H](Cc1ccccc1)NC(=O)[C@H](CC(N)=O)NC(=O)[C@@H]1CCCN1C(=O)[C@H](CO)NC(=O)[C@H](CO)NC(=O)[C@H](Cc1c[nH]cn1)NC(=O)[C@H](CCCNC(=N)N)NC(=O)[C@H](CC(C)C)NC(=O)[C@H](Cc1ccccc1)NC(=O)[C@H](CC(N)=O)NC(=O)[C@H](C)NC(=O)[C@H](CC(C)C)NC(=O)[C@H](CCCNC(=N)N)NC(=O)[C@H](CCC(N)=O)NC(=O)[C@@H](NC(=O)[C@H](C)NC(=O)[C@@H]1CSSC[C@H](NC(=O)[C@@H](N)CCCCNC(=O)COCCOCCNC(=O)CC[C@H](NC(=O)CCCCCCCCCCCCCCCCCCC(=O)O)C(=O)O)C(=O)N[C@@H](CC(N)=O)C(=O)N[C@@H]([C@@H](C)O)C(=O)N[C@@H](C)C(=O)N[C@@H]([C@@H](C)O)C(=O)N1)[C@@H](C)O)C(=O)N1CCC[C@H]1C(=O)N[C@@H](CO)C(=O)N[C@@H](CO)C(=O)N[C@H](C(=O)N[C@@H](CC(N)=O)C(=O)N[C@H](C(=O)NCC(=O)N[C@@H](Cc1c[nH]cn1)C(=O)N[C@@H](CC(N)=O)C(=O)N[C@H](C(=O)N[C@@H](Cc1ccc(O)cc1)C(N)=O)[C@@H](C)O)C(C)C)[C@@H](C)O
notes: Analogue of human amylin; also called compound 76
B2: N^ε1-[2-[2-[2-[[(4S)-4-carboxy-4-(19-carboxynonadecanoylamino)butanoyl]amino]ethoxy]ethoxy]acetyl]-[Arg17,Pro21,Pro27,Pro28,Pro31]-h-amylin (peptide)
peptide: K([AEEA-γGlu-C20 diacid])CNTATCATQRLANFLRHSSPNFGAIPPSTPVGSNTY-NH2
modifications: disulfide 2-7
notes: Analogue of human amylin; also called compound 53
B3: N^ε1-[2-[2-[2-[[(4S)-4-carboxy-4-(19-carboxynonadecanoylamino)butanoyl]amino]ethoxy]ethoxy]acetyl]-[Arg17,Pro21,Pro27,Pro28,Pro34]-h-amylin (peptide)
peptide: K([AEEA-γGlu-C20 diacid])CNTATCATQRLANFLRHSSPNFGAIPPSTNVGPNTY-NH2
modifications: disulfide 2-7; N-terminus assumed
SMILES: CC[C@H](C)[C@H](NC(=O)[C@H](C)NC(=O)CNC(=O)[C@H](Cc1ccccc1)NC(=O)[C@H](CC(N)=O)NC(=O)[C@@H]1CCCN1C(=O)[C@H](CO)NC(=O)[C@H](CO)NC(=O)[C@H](Cc1c[nH]cn1)NC(=O)[C@H](CCCNC(=N)N)NC(=O)[C@H](CC(C)C)NC(=O)[C@H](Cc1ccccc1)NC(=O)[C@H](CC(N)=O)NC(=O)[C@H](C)NC(=O)[C@H](CC(C)C)NC(=O)[C@H](CCCNC(=N)N)NC(=O)[C@H](CCC(N)=O)NC(=O)[C@@H](NC(=O)[C@H](C)NC(=O)[C@@H]1CSSC[C@H](NC(=O)[C@@H](N)CCCCNC(=O)COCCOCCNC(=O)CC[C@H](NC(=O)CCCCCCCCCCCCCCCCCCC(=O)O)C(=O)O)C(=O)N[C@@H](CC(N)=O)C(=O)N[C@@H]([C@@H](C)O)C(=O)N[C@@H](C)C(=O)N[C@@H]([C@@H](C)O)C(=O)N1)[C@@H](C)O)C(=O)N1CCC[C@H]1C(=O)N1CCC[C@H]1C(=O)N[C@@H](CO)C(=O)N[C@H](C(=O)N[C@@H](CC(N)=O)C(=O)N[C@H](C(=O)NCC(=O)N1CCC[C@H]1C(=O)N[C@@H](CC(N)=O)C(=O)N[C@H](C(=O)N[C@@H](Cc1ccc(O)cc1)C(N)=O)[C@@H](C)O)C(C)C)[C@@H](C)O
notes: Analogue of human amylin; also called compound 55
B4: N^ε1-[2-[2-[2-[[(4S)-4-carboxy-4-(19-carboxynonadecanoylamino)butanoyl]amino]ethoxy]ethoxy]acetyl]-[Arg17,Pro21,Pro27,Pro29,Pro31]-h-amylin (peptide)
peptide: K([AEEA-γGlu-C20 diacid])CNTATCATQRLANFLRHSSPNFGAIPSPTPVGSNTY-NH2
modifications: disulfide 2-7; N-terminus assumed
SMILES: CC[C@H](C)[C@H](NC(=O)[C@H](C)NC(=O)CNC(=O)[C@H](Cc1ccccc1)NC(=O)[C@H](CC(N)=O)NC(=O)[C@@H]1CCCN1C(=O)[C@H](CO)NC(=O)[C@H](CO)NC(=O)[C@H](Cc1c[nH]cn1)NC(=O)[C@H](CCCNC(=N)N)NC(=O)[C@H](CC(C)C)NC(=O)[C@H](Cc1ccccc1)NC(=O)[C@H](CC(N)=O)NC(=O)[C@H](C)NC(=O)[C@H](CC(C)C)NC(=O)[C@H](CCCNC(=N)N)NC(=O)[C@H](CCC(N)=O)NC(=O)[C@@H](NC(=O)[C@H](C)NC(=O)[C@@H]1CSSC[C@H](NC(=O)[C@@H](N)CCCCNC(=O)COCCOCCNC(=O)CC[C@H](NC(=O)CCCCCCCCCCCCCCCCCCC(=O)O)C(=O)O)C(=O)N[C@@H](CC(N)=O)C(=O)N[C@@H]([C@@H](C)O)C(=O)N[C@@H](C)C(=O)N[C@@H]([C@@H](C)O)C(=O)N1)[C@@H](C)O)C(=O)N1CCC[C@H]1C(=O)N[C@@H](CO)C(=O)N1CCC[C@H]1C(=O)N[C@H](C(=O)N1CCC[C@H]1C(=O)N[C@H](C(=O)NCC(=O)N[C@@H](CO)C(=O)N[C@@H](CC(N)=O)C(=O)N[C@H](C(=O)N[C@@H](Cc1ccc(O)cc1)C(N)=O)[C@@H](C)O)C(C)C)[C@@H](C)O
notes: Analogue of human amylin; also called compound 54
B5: N^ε1-[2-[2-[2-[[(4S)-4-carboxy-4-(19-carboxynonadecanoylamino)butanoyl]amino]ethoxy]ethoxy]acetyl]-[Arg17,Pro21,Pro27,Pro29,Pro34]-h-amylin (peptide)
peptide: K([AEEA-γGlu-C20 diacid])CNTATCATQRLANFLRHSSPNFGAIPSPTNVGPNTY-NH2
modifications: disulfide 2-7; N-terminus assumed
SMILES: CC[C@H](C)[C@H](NC(=O)[C@H](C)NC(=O)CNC(=O)[C@H](Cc1ccccc1)NC(=O)[C@H](CC(N)=O)NC(=O)[C@@H]1CCCN1C(=O)[C@H](CO)NC(=O)[C@H](CO)NC(=O)[C@H](Cc1c[nH]cn1)NC(=O)[C@H](CCCNC(=N)N)NC(=O)[C@H](CC(C)C)NC(=O)[C@H](Cc1ccccc1)NC(=O)[C@H](CC(N)=O)NC(=O)[C@H](C)NC(=O)[C@H](CC(C)C)NC(=O)[C@H](CCCNC(=N)N)NC(=O)[C@H](CCC(N)=O)NC(=O)[C@@H](NC(=O)[C@H](C)NC(=O)[C@@H]1CSSC[C@H](NC(=O)[C@@H](N)CCCCNC(=O)COCCOCCNC(=O)CC[C@H](NC(=O)CCCCCCCCCCCCCCCCCCC(=O)O)C(=O)O)C(=O)N[C@@H](CC(N)=O)C(=O)N[C@@H]([C@@H](C)O)C(=O)N[C@@H](C)C(=O)N[C@@H]([C@@H](C)O)C(=O)N1)[C@@H](C)O)C(=O)N1CCC[C@H]1C(=O)N[C@@H](CO)C(=O)N1CCC[C@H]1C(=O)N[C@H](C(=O)N[C@@H](CC(N)=O)C(=O)N[C@H](C(=O)NCC(=O)N1CCC[C@H]1C(=O)N[C@@H](CC(N)=O)C(=O)N[C@H](C(=O)N[C@@H](Cc1ccc(O)cc1)C(N)=O)[C@@H](C)O)C(C)C)[C@@H](C)O
notes: Analogue of human amylin; also called compound 56

biological target: T1, human calcitonin receptor (human, UniProt P30988 25-474); assay: IC50 on human CTR divided by IC50 on human amylin receptor (Assays VII/V)
T1 construct: whole, on cells; Used as membranes prepared from a BHK tk'ts 13 cell line stably transfected with the human calcitonin receptor (Assay VII); also called hCTR; hCT
T1 sequence (looked up): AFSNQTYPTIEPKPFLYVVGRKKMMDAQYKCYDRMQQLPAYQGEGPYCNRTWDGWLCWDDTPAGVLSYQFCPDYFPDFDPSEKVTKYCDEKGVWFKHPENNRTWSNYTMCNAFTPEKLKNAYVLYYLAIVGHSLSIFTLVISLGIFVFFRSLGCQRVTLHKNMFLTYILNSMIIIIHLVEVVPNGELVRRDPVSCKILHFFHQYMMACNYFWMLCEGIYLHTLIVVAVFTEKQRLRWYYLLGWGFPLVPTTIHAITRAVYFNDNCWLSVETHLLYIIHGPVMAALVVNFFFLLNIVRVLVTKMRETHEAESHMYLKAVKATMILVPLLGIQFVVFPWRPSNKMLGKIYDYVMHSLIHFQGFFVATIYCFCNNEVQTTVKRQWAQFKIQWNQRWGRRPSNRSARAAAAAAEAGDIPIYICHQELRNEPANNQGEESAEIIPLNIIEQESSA
Procedure: The resulting pellet was resuspended, homogenized and centrifuged (20.000 rpm, 15 min) in a buffer containing 20 mM Na-HEPES and 0.1 mM EDTA (pH 7.4, buffer 2). The resulting pellet was resuspended in buffer 2 and protein concentration was measured (BCA protein Assay, Pierce). The homogenate was kept cold during the whole procedure. The membranes were kept at −80° C. until use. The assay was performed in a 384 well Optiplate (PerkinElmer) in a total volume of 40 ul. Membranes were mixed with SPA beads. Final concentration of membranes 35 ng/μL final and SPA beads was 0.05 mg/well. Test-compounds were dissolved in DMSO and further diluted in assay buffer (50 mM Hepes, pH 7.4, 1 mM CaCl2, 5 mM MgCl₂, 0.1% OA and 0.02% Tween20). […] The final mixture was incubated with shaking at 400 rpm for 120 min at 25° C. prior to centrifugation (1500 rpm, 10 min). Samples were analyzed on TopCounter™ (Packard). The IC₅₀ was calculated using (one site binding competition analysis) GraphPad Prism5 as a measure of receptor affinity.
Membranes were prepared in the following way; the cells were rinsed with PBS and incubated with Versene for approximately 5 min before harvesting. The cells were flushed with PBS and the cell-suspension was centrifuged for 5 min at 1000 rpm. Cells were homogenized (Ultrathurrax) in a buffer containing 20 mM Na-HEPES and 10 mM EDTA (pH 7.4) and centrifuged at 20.000 rpm for 15 min. The resulting pellet was resuspended, homogenized and centrifuged (20.000 rpm, 15 min) in a buffer containing 20 mM Na-HEPES and 0.1 mM EDTA (pH 7.4, buffer 2). The resulting pellet was resuspended in buffer 2 and protein concentration was measured (BCA protein Assay, Pierce). The homogenate was kept cold during the whole procedure. The membranes were kept at −80° C. until use. Assay was performed in a 384 well Optiplate (PerkinElmer) in a total volume of 40 ul. Membranes were mixed with SPA beads.

Row | Binder | Ratio hCT/hAmylin binding
1 | B1 | 80
2 | B2 | 104
3 | B3 | 51.8
4 | B4 | 146
5 | B5 | 42.6

biological target: T2, rat calcitonin receptor (rat, UniProt P32214 25-516); assay: SPA competition with 125I-calcitonin, membranes of BHK cells with rat CTR (Assay VIII)
T2 construct: whole, on cells; Used as membranes prepared from BHK tk'ts 13 cells transiently transfected with the rat calcitonin receptor (Assay VIII); also called rCTR; rat calcitonin (a) receptor
T2 sequence (looked up): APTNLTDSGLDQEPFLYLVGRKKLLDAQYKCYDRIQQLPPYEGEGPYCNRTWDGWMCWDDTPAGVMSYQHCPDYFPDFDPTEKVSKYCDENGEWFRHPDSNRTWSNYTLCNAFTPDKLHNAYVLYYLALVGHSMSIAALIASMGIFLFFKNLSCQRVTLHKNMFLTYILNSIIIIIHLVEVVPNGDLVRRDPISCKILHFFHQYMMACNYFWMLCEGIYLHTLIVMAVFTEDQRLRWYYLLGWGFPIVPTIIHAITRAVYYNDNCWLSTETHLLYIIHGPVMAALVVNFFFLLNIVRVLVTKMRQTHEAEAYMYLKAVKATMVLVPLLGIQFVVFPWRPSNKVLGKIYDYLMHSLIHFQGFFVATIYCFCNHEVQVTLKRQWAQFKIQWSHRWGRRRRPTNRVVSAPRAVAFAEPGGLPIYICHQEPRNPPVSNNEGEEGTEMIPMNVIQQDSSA

Row | Binder | IC50 [nM]
6 | B1 | 38.9
7 | B2 | 10.9
8 | B3 | 6.25
9 | B4 | 8.79
10 | B5 | 5.26

biological target: T3, rat amylin receptor (rat calcitonin receptor + rat RAMP 3) (rat, UniProt P32214 25-516; Q9JJ73 23-147); assay: SPA competition with 125I-rat amylin, membranes of BHK cells with rat CTR + rat RAMP3 (Assay VI)
T3 construct: whole, on cells; Used as membranes prepared from BHK tk'ts 13 cells transiently transfected with rat calcitonin receptor and rat RAMP 3 (Assay VI); also called rAmylin-R; rat amylin 3(a) receptor
T3 sequence (looked up) 1: T2 sequence (looked up)
T3 sequence (looked up) 2: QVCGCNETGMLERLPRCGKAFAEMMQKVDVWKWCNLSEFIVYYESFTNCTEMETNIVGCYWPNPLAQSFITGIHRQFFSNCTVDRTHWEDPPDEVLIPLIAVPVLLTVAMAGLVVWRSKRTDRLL

Row | Binder | IC50 [nM]
11 | B1 | 0.686
12 | B2 | 0.084
13 | B3 | 0.081
14 | B4 | 0.049
15 | B5 | 0.04

biological target: T2, rat calcitonin receptor; assay: IC50 on rat CTR divided by IC50 on rat amylin receptor (Assays VIII/VI)

Row | Binder | Ratio rCT/rAmylin binding
16 | B1 | 56.8
17 | B2 | 130
18 | B3 | 77.2
19 | B4 | 179
20 | B5 | 131
